The values below come from the supplement of paper PMC9112550, “Optimization of the antimicrobial peptide Bac7 by deep mutational scanning” (BMC Biology, 2022).

The data set deals with Escherichia coli TOP10. As to the kind of experiment: shrunken log2 fold change of peptide-encoding DNA abundance (4.5 h post-induction vs induction); higher = less antimicrobial activity (less host growth inhibition). The conditions noted are these: time post-induction: 4.5 h; library: site-saturation at positions 5, 18, 19, 20.
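Note: peptides expressed intracellularly from a pBAD plasmid library in pooled LB shake-flask culture, induced with 0.3% L-arabinose, DNA abundance read by NGS, three biological replicates, DESeq2 with apeglm shrinkage.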

On to RRIRLRPPRLPRPRPRPYLPPRP, for which the “shrunken log2 fold change” value was -0.18.
Next, RRIRNRPPRLPRPRPRPKASPRP: -0.127; RRIRKRPPRLPRPRPRPNRSPRP: -0.0169.
Next, RRIRNRPPRLPRPRPRPVFDPRP: -0.152.
Under RRIRMRPPRLPRPRPRPQSFPRP stands -0.199; under RRIRYRPPRLPRPRPRPTSQPRP, 0.054.
Turning to RRIRQRPPRLPRPRPRPLDTPRP, the “shrunken log2 fold change” value is -0.144.
Next, RRIRHRPPRLPRPRPRPIPTPRP: -0.218; RRIRPRPPRLPRPRPRPKACPRP: 0.255; RRIRLRPPRLPRPRPRPKMLPRP: -0.0541.
Next, RRIRRRPPRLPRPRPRPEWVPRP: 0.344; RRIRSRPPRLPRPRPRPCWYPRP: -0.393; RRIRARPPRLPRPRPRPDLQPRP: 0.79.
Next, RRIRKRPPRLPRPRPRPEKTPRP: -0.000942; RRIRERPPRLPRPRPRPTIEPRP: -0.0577; RRIRYRPPRLPRPRPRPPEYPRP: 0.0412.
For RRIRMRPPRLPRPRPRPGLKPRP, the “shrunken log2 fold change” value is 0.363.
Under RRIRFRPPRLPRPRPRPGESPRP stands -0.00672.
Under RRIRPRPPRLPRPRPRPQLKPRP stands 0.202; under RRIRLRPPRLPRPRPRPEQLPRP, 0.131; under RRIRYRPPRLPRPRPRPFFRPRP, -0.019.
As for RRIRCRPPRLPRPRPRPKMSPRP, the “shrunken log2 fold change” value came out at 0.157.
Under RRIRQRPPRLPRPRPRPHTKPRP stands -0.213; under RRIRQRPPRLPRPRPRPWYLPRP, -0.176; under RRIRSRPPRLPRPRPRPCRRPRP, -0.241.
Consider RRIRKRPPRLPRPRPRPSNPPRP, for which the “shrunken log2 fold change” value was -0.0952.
As to RRIRMRPPRLPRPRPRPNAFPRP, the “shrunken log2 fold change” value turned out to be 0.344.
Turning to RRIRIRPPRLPRPRPRPVDWPRP, the “shrunken log2 fold change” value is -0.0226.
For the sequence RRIRIRPPRLPRPRPRPAGPPRP, the “shrunken log2 fold change” value amounted to 0.153.
As for RRIRGRPPRLPRPRPRPDGEPRP, the “shrunken log2 fold change” value was determined as 0.259.
RRIRDRPPRLPRPRPRPLWCPRP: the “shrunken log2 fold change” value is -0.15.
For RRIRCRPPRLPRPRPRPQEVPRP, the “shrunken log2 fold change” value stood at 0.144.
Next, RRIRCRPPRLPRPRPRPIEHPRP: -0.00454; RRIRMRPPRLPRPRPRPPEIPRP: 0.48.
Under RRIRYRPPRLPRPRPRPTFFPRP stands -0.0709.
Under RRIRVRPPRLPRPRPRPIHQPRP stands -0.166; under RRIRERPPRLPRPRPRPRSCPRP, 0.0568; under RRIRERPPRLPRPRPRPYHNPRP, -1.33.
RRIRHRPPRLPRPRPRPLNAPRP: the “shrunken log2 fold change” value was -0.0576.
Next, RRIRYRPPRLPRPRPRPGLIPRP: -0.0546; RRIRWRPPRLPRPRPRPMIVPRP: 2.28.
Next, RRIRYRPPRLPRPRPRPCGQPRP: -0.0335.
Under RRIRGRPPRLPRPRPRPWMDPRP stands 0.166; under RRIRNRPPRLPRPRPRPVLEPRP, 0.183.
Turning to RRIRVRPPRLPRPRPRPFHAPRP, the “shrunken log2 fold change” value was -0.229.
Next, RRIRGRPPRLPRPRPRPKVGPRP: 0.721; RRIRERPPRLPRPRPRPPYWPRP: 0.0536.
Next, RRIRNRPPRLPRPRPRPVKAPRP: -0.0518.
Next, RRIRYRPPRLPRPRPRPHDDPRP: 0.0514; RRIRTRPPRLPRPRPRPNVPPRP: -0.0447; RRIRLRPPRLPRPRPRPPKMPRP: 0.159.
As to RRIRVRPPRLPRPRPRPYIYPRP, the “shrunken log2 fold change” value is -0.806.
Next, RRIRPRPPRLPRPRPRPDNAPRP: 0.0303; RRIRIRPPRLPRPRPRPSSHPRP: -1.02.
Consider RRIRGRPPRLPRPRPRPSHYPRP, for which the “shrunken log2 fold change” value was -0.0921.
As for RRIRMRPPRLPRPRPRPERAPRP, the “shrunken log2 fold change” value worked out at 2.76.
Next, RRIRCRPPRLPRPRPRPAEPPRP: 0.368.
On to RRIRQRPPRLPRPRPRPDAYPRP, for which the “shrunken log2 fold change” value is -0.228.
Regarding RRIRYRPPRLPRPRPRPWAPPRP, the “shrunken log2 fold change” value was -0.289.
Under RRIRSRPPRLPRPRPRPFDDPRP stands -0.0842; under RRIRQRPPRLPRPRPRPSDPPRP, 0.114; under RRIRDRPPRLPRPRPRPQEPPRP, -0.0802.
Under RRIRQRPPRLPRPRPRPDKCPRP stands 0.272; under RRIRDRPPRLPRPRPRPIHSPRP, -0.00999.
Next, RRIRFRPPRLPRPRPRPPIVPRP: -0.126; RRIRRRPPRLPRPRPRPMCCPRP: -0.0111.
In the case of RRIRWRPPRLPRPRPRPCHYPRP, the “shrunken log2 fold change” value was -0.0893.
Next, RRIRHRPPRLPRPRPRPLQTPRP: 0.139; RRIRYRPPRLPRPRPRPSNYPRP: -1.28; RRIRQRPPRLPRPRPRPPAYPRP: 0.106.
RRIRIRPPRLPRPRPRPVDRPRP: the “shrunken log2 fold change” value came out at 0.0811.
Consider RRIRIRPPRLPRPRPRPRRQPRP, for which the “shrunken log2 fold change” value came to 0.0868.
Next, RRIRDRPPRLPRPRPRPKFQPRP: 0.00463; RRIRNRPPRLPRPRPRPSCTPRP: -0.34; RRIRHRPPRLPRPRPRPSLYPRP: 0.07.
As for RRIRYRPPRLPRPRPRPCDMPRP, the “shrunken log2 fold change” value is -0.01.
Under RRIRDRPPRLPRPRPRPKFDPRP stands -0.0895; under RRIRNRPPRLPRPRPRPMYPPRP, -0.271.
Next, RRIRCRPPRLPRPRPRPNMKPRP: -0.769; RRIRDRPPRLPRPRPRPSDHPRP: -0.422.
With RRIRNRPPRLPRPRPRPTEIPRP, the “shrunken log2 fold change” value was -0.319.
Under RRIRQRPPRLPRPRPRPPSSPRP stands 0.0251.
Under RRIRPRPPRLPRPRPRPMRAPRP stands 0.788; under RRIRPRPPRLPRPRPRPIAKPRP, 0.0454; under RRIRVRPPRLPRPRPRPCFKPRP, -0.243.
Under RRIRKRPPRLPRPRPRPPQFPRP stands 0.127.
Take RRIRKRPPRLPRPRPRPVIEPRP: the “shrunken log2 fold change” value turned out to be 0.15.
Next, RRIRMRPPRLPRPRPRPLWMPRP: 0.0202; RRIRERPPRLPRPRPRPALGPRP: 0.37.
RRIRYRPPRLPRPRPRPAMCPRP: the “shrunken log2 fold change” value was determined as 0.00292.
Next, RRIRQRPPRLPRPRPRPPDYPRP: 0.00906.
Under RRIRYRPPRLPRPRPRPDAPPRP stands -0.0708; under RRIRTRPPRLPRPRPRPPLGPRP, 0.328; under RRIRHRPPRLPRPRPRPHQMPRP, -0.0152.
Next, RRIRSRPPRLPRPRPRPDCTPRP: 0.038; RRIRFRPPRLPRPRPRPLGLPRP: -0.0983; RRIRHRPPRLPRPRPRPFFCPRP: -0.16.
Take RRIRNRPPRLPRPRPRPKVAPRP: the “shrunken log2 fold change” value amounted to 0.0368.
Next, RRIRHRPPRLPRPRPRPTNLPRP: -0.288; RRIRTRPPRLPRPRPRPIEYPRP: -0.233; RRIRTRPPRLPRPRPRPPLEPRP: 0.531.
Next, RRIRVRPPRLPRPRPRPYGMPRP: -0.0584.
For the sequence RRIRVRPPRLPRPRPRPIQSPRP, the “shrunken log2 fold change” value was -0.177.
Regarding RRIRRRPPRLPRPRPRPIMIPRP, the “shrunken log2 fold change” value is -0.105.
Consider RRIRERPPRLPRPRPRPYTNPRP, for which the “shrunken log2 fold change” value was -0.172.
Under RRIRWRPPRLPRPRPRPCFEPRP stands -0.0254.
Under RRIRWRPPRLPRPRPRPECSPRP stands 0.966; under RRIRYRPPRLPRPRPRPVPCPRP, -0.226.
As to RRIRCRPPRLPRPRPRPFHCPRP, the “shrunken log2 fold change” value is -0.451.
Under RRIRCRPPRLPRPRPRPVQFPRP stands 0.13; under RRIRSRPPRLPRPRPRPDWRPRP, 0.132; under RRIRIRPPRLPRPRPRPSEFPRP, -0.177.
Under RRIRGRPPRLPRPRPRPTITPRP stands 0.526; under RRIRKRPPRLPRPRPRPTVQPRP, 0.777.
Next, RRIRFRPPRLPRPRPRPYKVPRP: -0.614; RRIRFRPPRLPRPRPRPKTTPRP: 0.142.
Turning to RRIRRRPPRLPRPRPRPGTVPRP, the “shrunken log2 fold change” value stood at 0.0962.
Consider RRIRMRPPRLPRPRPRPRALPRP, for which the “shrunken log2 fold change” value stood at 2.22.
In the case of RRIRDRPPRLPRPRPRPAMIPRP, the “shrunken log2 fold change” value was -0.129.
As for RRIRMRPPRLPRPRPRPKYCPRP, the “shrunken log2 fold change” value came to 0.0472.
Next, RRIRPRPPRLPRPRPRPHCRPRP: -0.198; RRIRGRPPRLPRPRPRPCLVPRP: 0.761; RRIRNRPPRLPRPRPRPHEQPRP: -0.066.
Next, RRIRRRPPRLPRPRPRPCWWPRP: 0.261; RRIRTRPPRLPRPRPRPNQTPRP: -0.155.
